The values below come from patent US20230242601A1, “PEPTIDE USED TO PREVENT OR TREAT SYNUCLEINOPATHY” (TOHOKU UNIVERSITY, priority 2020, published 2023).

Where no end group is shown, it is not given here.

For test [1], the target named is α-synuclein and FABP3 (Syn-FABP3 complex) (Homo sapiens, UniProt P05413). The test can be described thus: Thioflavin T fluorescence / TEM observation of α-synuclein amyloid fibril formation with FABP3 and peptide. In kind it is biochemical. The method, then:
An ARVO X4 (Perkin Elmer) was used for shaking and measuring fluorescence values over time in the fibril formation process of Syn. For the measurement, the samples were added to a 96-well plate (8×12-well plate; Greiner, Kremsmuenster, Austria) to give 150 μL/well, and the fluorescence (Ex of 440 nm and Em of 486 nm) was measured every 15 minutes while the well plate was continuously shaken at 37° C. […] Samples after 1800 minutes obtained after the measurement were measured with a transmission electron microscope (TEM) (JEOL JEM-1400 Plus). To a collodion membrane (400 mesh; Nisshin EM, Tokyo, Japan), 10 μL of the sample was added and allowed to stand at room temperature for two minutes, then washed with 5 μL of purified water, stained with 5 μL of a 10% EM stain solution for one minute, and then washed with 5 μL of purified water. This was air-dried overnight and then measured.
The thio-T measurement and the measurement with a TEM were performed in the same manner as in Example 3.
The thio-T measurement and the measurement with a TEM were performed in the same manner as in Example 3. The Thio-T measurement was performed for samples to each of which SynP130-140 was added at the beginning (0 hour), after 3 hours, 8 hours, or 24 hours.

Test [2] has as its target FABP3 (Homo sapiens, UniProt P05413). Briefly: QCM (quartz crystal microbalance) binding analysis of immobilized FABP3 with α-synuclein or its peptides. The settings on record: for binding to FABP3: His-tagged FABP3 immobilized, 2.5-20 nM analyte, 50 mM Tris-HCl pH 7.4, 25° C.; for binding affinity for FABP3 relative to the natural sequence (SynP130-140) / binding affinity for FABP3 compared with the natural sequence (SynP130-140), in words: immobilized FABP3. The procedure: The substrate was washed with purified water, then 500 μL of a Ni solution (20 mM HEPES-NaOFH buffer, pH 7.5, 150 mM NaCl, 50 mM EDTA, 10 mM NiSO4) was added, and the substrate was allowed to stand at room temperature for 10 minutes. The substrate was washed with purified water, then 100 nM of FABP3 fused with a His-tag at the N-terminus diluted with a 50 mM Tris-HCl pH 7.4 was added to a quartz sensor and treated for one minute to be immobilized. […] The measurement was performed in a 500 μL liquid under conditions of 25° C. and 1000 rpm for three minutes. After the measurement, Kd, kon, and koff were each calculated with AQUA 2.0 software (Initium).
FABP3 and various mutants of SynP130-140 were interacted in the same manner as in Example 1. The measurement was performed by adding each peptide at any concentration to the immobilized FABP3.
The detailed experimental method is as described in the method of Example 1.

Test [3] relates to cultured dopaminergic nerve cells. The test can be described thus: Antagonistic effect of C-terminal peptide on uptake of ATTO-550-labeled α-synuclein monomer into cultured dopaminergic nerves. The format is cell-based, mouse. As to conditions: 1 μM peptide with 1 μM ATTO-550-labeled α-synuclein monomer, 48 hours; p<0.0001 vs control. The method, then: Cultured dopaminergic nerves were prepared according to the method (Kawahata et al. 2019) already described. Specifically, the uterus was aseptically removed from a C57BL6N mouse on day 15.5 of pregnancy by abdominal midline incision under deep isoflurane anesthesia, and the fetal mesencephalon was removed in ice-cold Hank's balanced salt solution (HBSS) under a stereomicroscope. The tissue was then dispersed by treatment with a nerve cell suspension (Sumitomo Bakelite) at 37° C. for 30 minutes, the dispersion was centrifuged at 1000 rpm for 5 minutes, and then the supernatant was discarded. The cell pellet was dispersed, then a removal solution (Sumitomo Bakelite) was added, and the mixture was centrifuged at 900 rpm for 5 minutes. The supernatant was then removed, the pellet was suspended in Eagle's minimal essential medium (EMEM) and seeded on a poly-L-lysine-coated chamber plate (Iwaki). […] Values are mean±SEM (n>20), and one-way ANOVA with Tukey test was performed for all the groups. The conceptual diagram of the synthesized α-synuclein is illustrated in C.

α-synuclein and FABP3 (Syn-FABP3 complex), sequence (P05413 whole entry, species assumed, one chain of several): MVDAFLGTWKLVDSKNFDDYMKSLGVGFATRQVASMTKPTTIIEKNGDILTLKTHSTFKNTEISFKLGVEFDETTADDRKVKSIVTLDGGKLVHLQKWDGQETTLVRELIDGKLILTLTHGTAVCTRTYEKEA
FABP3, sequence (P05413 2-133 limits assumed): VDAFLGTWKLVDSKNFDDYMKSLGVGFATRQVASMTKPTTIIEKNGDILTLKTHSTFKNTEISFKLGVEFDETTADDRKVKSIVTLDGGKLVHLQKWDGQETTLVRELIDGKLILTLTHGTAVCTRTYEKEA

For the substance “SynP130-140: peptide of the C-terminal region of human α-synuclein composed of the 130th to 140th amino acids (EEGYQDYEPEA; partial peptide of alpha-synuclein)”, in test [1] (FABP3, α-synuclein and peptide added simultaneously, 1:1:1 molar ratio (69 μM each), Thio-T, 37° C.), the “amyloid fibril aggregate formation of α-synuclein” value is “forms amyloid tibril aggregates”. Also, the “release of Syn from the Syn-FABP3 complex and amyloid fibril formation” value in test [1] (equimolar peptide added to the preformed 1:1 complex at 0, 3, 8 or 24 hours) was “releases Syn from FABP3”. Besides, in test [2], the “affinity for FABP3 compared with Syn” value is “stronger affinity for FABP3”. The “binding to FABP3” value in test [2] (QCM) is “bound to FABP3 in a dose dependent manner”. On to EEGFQDYEPEA [Y133F], for which the “amyloid aggregate formation of α-synuclein, concentration dependence” value in test [1] (peptide at 0.1, 0.5 or 1 equivalent to 69 μM α-synuclein and 69 μM FABP3) is “preferentially binds to FABP3 in a dose-dependent manner”. Moreover, the Kd (usually the free concentration of one partner at which half of the binding sites on the other are occupied at equilibrium, for simple one-to-one binding) in test [2] (QCM, binding to FABP3) is 0.1 nM. In addition, the “binding affinity for FABP3 relative to the natural sequence (SynP130-140)” value in test [2] (QCM) is listed as “two-fold stronger”. Take EGYQDYEPEA [10aa]: the “intracellular uptake of fluorescently labeled α-synuclein (ATTO fluorescence intensity)” value in test [3] is “inhibited the intracellular uptake”. Turning to “Y136F: SynP130-140 mutant in which tyrosine at position 136 was changed to phenylalanine (EEGYQDFEPEA)”, in test [2] (QCM), the “binding affinity for FABP3 compared with the natural sequence (SynP130-140), in words” value is given as “about the same affinity”. FABP3: fatty acid-binding protein 3: the “aggregation of synuclein on adding FABP3 alone” value in test [1] (equimolar FABP3 added to α-synuclein, no peptide, Thio-T) is “completely suppressed the aggregation of synuclein”. In the case of “Y133W/Y136W: peptide in which the 133rd and 136th tyrosines in SynP130-140 were replaced by tryptophans (EEGWQDWEPEA)”, the “binding affinity for FABP3 compared with the natural sequence (SynP130-140), in words” value in test [2] (QCM) is reported as “did not change the binding affinity”. Same read-out and setting: for “Y133F/Y136W: SynP130-140 mutant with tyrosine 133 changed to phenylalanine and tyrosine 136 changed to tryptophan (EEGFQDWEPEA)” the value was “failed to further strengthen the binding affinity”. With “SynP2-10: peptide of the N-terminal region of human α-synuclein, second to tenth amino acids (DVFMKGLSKA; partial peptide of alpha-synuclein) [reference compound]”, in test [2] (QCM), the “binding to FABP3” value is recorded as “hardly bound to FABP3”.

Regarding “SynP73-96: peptide of the NAC region of human α-synuclein, 73th to 96th amino acids [reference compound]”, the “binding to FABP3” value in test [2] (QCM) is “hardly bound to FABP3”. In the case of “Y133F/Y136F: SynP130-140 mutant in which tyrosine at position 133 and position 136 were both changed to phenylalanine (EEGFQDFEPEA)”, the “binding affinity for FABP3 relative to the natural sequence (SynP130-140)” value in test [2] (QCM) came to 2 fold. On to “Y136W: peptide in which the 136th tyrosine in SynP130-140 was replaced by tryptophan (EEGYQDWEPEA)”, for which the “binding affinity for FABP3 compared with the natural sequence (SynP130-140), in words” value in test [2] (QCM) was “about the same affinity”.
